Target: HsAGO2 D669A (catalytically dead) (Homo sapiens, UniProt Q9UKV8 1-859, D669A)
Test: cryo-EM (3.3 A); 1 mM Mg2+; one Mg modelled; Dissociation filter binding: 17.6 mM HEPES pH 7.4, 97.8 mM KOAc, 0.978 mM Mg(OAc)2, 5 mM DTT, BSA, yeast tRNA, 0.01% IGEPAL, 1.6% glycerol, 37 C; cryo-EM complex: 50 mM Tris pH 7.5, 150 mM NaCl, 1 mM MgCl2, 2% glycerol, 0.5 mM TCEP (target bound at 25 C in 10% glycerol)
Details: protein: recombinant; tags: 3xFLAG-SUMOEu1, cleaved off by SENPEuB; label: biotin on target 3' end (click, diazo biotin azide); guide-target paired from g2 to g22; target overhangs 5' 3 nt and 3' 3 nt; g1 not paired

HsAGO2 D669A (catalytically dead), sequence (Q9UKV8 whole entry D669A): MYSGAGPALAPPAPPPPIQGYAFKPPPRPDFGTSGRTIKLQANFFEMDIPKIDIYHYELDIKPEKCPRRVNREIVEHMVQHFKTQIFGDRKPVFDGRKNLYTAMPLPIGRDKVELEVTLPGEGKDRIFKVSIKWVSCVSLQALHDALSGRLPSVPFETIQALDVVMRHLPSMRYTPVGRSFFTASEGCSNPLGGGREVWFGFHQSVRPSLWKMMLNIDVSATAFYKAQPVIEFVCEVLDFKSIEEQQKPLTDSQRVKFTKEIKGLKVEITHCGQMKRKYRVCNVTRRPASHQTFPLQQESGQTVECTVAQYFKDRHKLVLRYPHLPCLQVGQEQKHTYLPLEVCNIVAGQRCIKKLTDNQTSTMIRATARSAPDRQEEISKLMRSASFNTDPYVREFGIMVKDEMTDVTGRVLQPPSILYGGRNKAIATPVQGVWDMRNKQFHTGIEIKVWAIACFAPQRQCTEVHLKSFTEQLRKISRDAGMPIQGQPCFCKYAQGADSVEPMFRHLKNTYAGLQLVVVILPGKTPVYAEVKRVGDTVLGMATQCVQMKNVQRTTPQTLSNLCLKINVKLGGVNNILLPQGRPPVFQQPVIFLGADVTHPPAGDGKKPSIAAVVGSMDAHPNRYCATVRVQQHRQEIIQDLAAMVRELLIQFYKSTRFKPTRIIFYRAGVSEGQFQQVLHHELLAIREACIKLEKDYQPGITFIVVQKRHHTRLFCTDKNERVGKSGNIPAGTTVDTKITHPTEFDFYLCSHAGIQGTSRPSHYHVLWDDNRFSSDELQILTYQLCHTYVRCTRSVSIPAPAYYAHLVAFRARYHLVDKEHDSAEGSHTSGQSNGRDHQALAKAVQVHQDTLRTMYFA

B1: miR-7 guide (22 nt) / fully complementary target (dsRNA)
RNA 1: UGGAAGACUAGUGAUUUUGUUG
RNA 2: UUUCAACAAAAUCACUAGUCUUCCAAAU
modifications: guide 5'-phosphate; target nt 1-3 (U) and 26-27 (A) 2'-O-methyl; 3'-terminal nt is deoxyuridine with 5-octadiynyl
binding result: binds

Source: paper doi:10.1101/2024.08.19.608718, “The structural basis for RNA slicing by human Argonaute2”
